Results taken from article PMC11272584 (Nature Metabolism, 2024).

T1: GIPR L261H (Homo sapiens, UniProt P48546, L261H)
T1 construct: host or cells: HEK293
T1 sequence (P48546 22-466 L261H): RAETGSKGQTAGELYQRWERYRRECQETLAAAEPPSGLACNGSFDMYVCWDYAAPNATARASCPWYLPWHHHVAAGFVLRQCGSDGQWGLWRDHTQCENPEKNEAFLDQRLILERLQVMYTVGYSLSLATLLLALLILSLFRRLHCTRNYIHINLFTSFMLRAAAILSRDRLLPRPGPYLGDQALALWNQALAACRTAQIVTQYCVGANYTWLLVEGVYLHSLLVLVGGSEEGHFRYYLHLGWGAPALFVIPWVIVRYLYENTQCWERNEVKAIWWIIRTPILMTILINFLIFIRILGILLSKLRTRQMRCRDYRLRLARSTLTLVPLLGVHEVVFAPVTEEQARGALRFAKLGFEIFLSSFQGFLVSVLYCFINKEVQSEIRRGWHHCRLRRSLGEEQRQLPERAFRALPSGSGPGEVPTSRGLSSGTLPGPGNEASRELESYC

T2: GIPR A294V (Homo sapiens, UniProt P48546, A294V)
T2 construct: host or cells: HEK293
T2 sequence (P48546 22-466 A294V): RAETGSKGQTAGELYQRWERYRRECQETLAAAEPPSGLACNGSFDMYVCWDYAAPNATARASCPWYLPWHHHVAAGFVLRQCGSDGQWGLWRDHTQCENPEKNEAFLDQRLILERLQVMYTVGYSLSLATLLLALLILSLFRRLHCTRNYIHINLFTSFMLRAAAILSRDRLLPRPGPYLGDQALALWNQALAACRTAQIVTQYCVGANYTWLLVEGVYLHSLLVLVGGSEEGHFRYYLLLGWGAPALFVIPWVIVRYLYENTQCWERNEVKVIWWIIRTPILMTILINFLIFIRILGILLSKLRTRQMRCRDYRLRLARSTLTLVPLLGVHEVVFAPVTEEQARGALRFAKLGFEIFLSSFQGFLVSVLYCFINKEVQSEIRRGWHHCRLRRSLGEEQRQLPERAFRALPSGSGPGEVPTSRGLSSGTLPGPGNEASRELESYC

T3: GIPR I299V (Homo sapiens, UniProt P48546, I299V)
T3 construct: host or cells: HEK293
T3 sequence (P48546 22-466 I299V): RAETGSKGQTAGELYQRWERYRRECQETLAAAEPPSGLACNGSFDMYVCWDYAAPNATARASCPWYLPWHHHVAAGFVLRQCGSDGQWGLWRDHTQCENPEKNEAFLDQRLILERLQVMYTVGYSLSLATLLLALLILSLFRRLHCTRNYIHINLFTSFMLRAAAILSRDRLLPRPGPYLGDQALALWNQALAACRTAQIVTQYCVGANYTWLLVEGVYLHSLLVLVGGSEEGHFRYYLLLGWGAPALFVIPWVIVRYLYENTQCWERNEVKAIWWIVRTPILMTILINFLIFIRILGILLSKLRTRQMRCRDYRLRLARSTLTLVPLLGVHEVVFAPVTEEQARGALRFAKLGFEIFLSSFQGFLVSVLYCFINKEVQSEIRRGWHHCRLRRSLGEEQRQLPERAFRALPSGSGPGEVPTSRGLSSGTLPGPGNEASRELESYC

T4: GIPR E288G (Homo sapiens, UniProt P48546, E288G)
T4 construct: host or cells: HEK293
T4 sequence (P48546 22-466 E288G): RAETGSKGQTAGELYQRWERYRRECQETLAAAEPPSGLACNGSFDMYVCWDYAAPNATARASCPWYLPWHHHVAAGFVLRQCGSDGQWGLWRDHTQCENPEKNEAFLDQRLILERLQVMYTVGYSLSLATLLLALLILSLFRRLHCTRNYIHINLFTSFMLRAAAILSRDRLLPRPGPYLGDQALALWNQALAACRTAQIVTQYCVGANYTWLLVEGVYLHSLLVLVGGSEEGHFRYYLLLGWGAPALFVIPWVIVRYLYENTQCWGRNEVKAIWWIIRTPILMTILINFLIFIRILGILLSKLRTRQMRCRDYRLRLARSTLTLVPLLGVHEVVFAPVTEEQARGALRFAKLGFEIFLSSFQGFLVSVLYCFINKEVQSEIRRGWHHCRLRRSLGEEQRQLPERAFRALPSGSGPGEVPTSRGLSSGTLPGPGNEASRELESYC

T5: GIPR E291K (Homo sapiens, UniProt P48546, E291K)
T5 construct: host or cells: HEK293
T5 sequence (P48546 22-466 E291K): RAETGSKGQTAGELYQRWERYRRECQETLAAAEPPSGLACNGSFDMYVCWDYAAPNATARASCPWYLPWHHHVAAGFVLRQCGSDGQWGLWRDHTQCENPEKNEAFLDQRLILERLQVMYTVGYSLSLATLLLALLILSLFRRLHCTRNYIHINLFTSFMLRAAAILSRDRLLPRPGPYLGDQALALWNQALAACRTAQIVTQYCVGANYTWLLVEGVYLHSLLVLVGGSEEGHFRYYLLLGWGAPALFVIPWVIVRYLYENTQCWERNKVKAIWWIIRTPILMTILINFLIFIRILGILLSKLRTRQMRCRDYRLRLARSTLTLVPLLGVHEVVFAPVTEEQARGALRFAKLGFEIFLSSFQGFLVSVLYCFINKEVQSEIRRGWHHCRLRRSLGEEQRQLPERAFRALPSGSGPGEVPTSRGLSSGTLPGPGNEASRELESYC


Assays:
GIPR L261H = biological target: T1, GIPR L261H; assay: cAMP accumulation; type: cell-based
Method: (§1) HEK293 (CRL-1573, American Type Culture Collection) and β-arrestin 1/2 knockout cells, generated from HEK293A[48], were used for cAMP measurement, homologues competition binding and β-arrestin 2 recruitment. […] Both cell lines were cultured at 5% CO2 at 37 °C in Roswell Park Memorial Institute GlutaMAX-I supplemented with 10% fetal bovine serum, 180 units ml^−1 penicillin, and 45 g ml^−1 streptomycin. For the cAMP and binding experiments, cells were transfected with the calcium phosphate precipitation method[49].
(§2) cAMP production was measured with the DiscoverX Hithunter cAMP assay according to the manufacturer’s protocol (DiscoverX). […] On the day of the assay, the cells were washed twice with HEPES-buffered saline (HBS) and incubated with HBS and 1 mM 3-isobutyl-1-methylxanthine for 30 min at 37 °C. […] After the incubation, the assay medium was removed from the plate and the cells were washed with 30 µl PBS and treated with 40 µl enzyme donor–lysis buffer–chemiluminescent reagents and 10 µl cAMP antibodies for 60 min before 40 µl enzyme acceptor solution added. After a 3-h incubation on a shaking table in the dark, the cAMP accumulation was measured based on luminescence with a Perkin Elmer EnVision 2104 Multilabel Microplate Reader.

GIPR variants (groups) [1] = assay: β-arrestin 2 recruitment (BRET); conditions: for In vitro groups (β-arrestin): arr part of the in vitro group; for Beta, Barr: in vitro β-arrestin recruitment per GIPR variant;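 as to all read-outs here: BRET readout of β-arrestin 2 recruitment in transiently transfected HEK293 cells expressing WT GIPR or a GIPR variant plus GPCR kinase 2, Rluc8 donor and citrine acceptor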
GIPR variants (groups) [2] = assay: cAMP accumulation; type: cell-based, human; conditions: for In vitro groups (cAMP): cAMP part of the in vitro group; for percentage_camp: cAMP production compared with WT; for Beta, cAMP: in vitro cAMP production per GIPR variant
GIPR A294V = biological target: T2, GIPR A294V; assay: cAMP accumulation; type: cell-based
Method: as §1
(§3) cAMP production was measured with the DiscoverX Hithunter cAMP assay according to the manufacturer’s protocol (DiscoverX). […] On the day of the assay, the cells were washed twice with HEPES-buffered saline (HBS) and incubated with HBS and 1 mM 3-isobutyl-1-methylxanthine for 30 min at 37 °C. […] After the incubation, the assay medium was removed from the plate and the cells were washed with 30 µl PBS and treated with 40 µl enzyme donor–lysis buffer–chemiluminescent reagents and 10 µl cAMP antibodies for 60 min before 40 µl enzyme acceptor solution added. After a 3-h incubation on a shaking table in the dark, the cAMP accumulation was measured based on luminescence with a Perkin Elmer EnVision 2104 Multilabel Microplate Reader. […]

GIPR I299V = biological target: T3, GIPR I299V; assay: cAMP accumulation; type: cell-based
Method: as §1, §3

GIPR E288G = biological target: T4, GIPR E288G; assay: cAMP accumulation; type: cell-based
Method: as §1, §2

GIPR E291K = biological target: T5, GIPR E291K; assay: cAMP accumulation; type: cell-based
Method: as §1, §3

Efficacy at 100pmol (cAMP) (GIPR L261H)	Efficacy at 100pmol (cAMP) (GIPR A294V)	Efficacy at 100pmol (cAMP) (GIPR I299V)	Efficacy at 100pmol (cAMP) (GIPR E288G)	Efficacy at 100pmol (cAMP) (GIPR E291K)	Molecule	In vitro groups (β-arrestin) (GIPR variants (groups) [1])	Beta, Barr (GIPR variants (groups) [1])	In vitro groups (cAMP) (GIPR variants (groups) [2])	percentage_camp (GIPR variants (groups) [2]) [% cAMP]	Beta, cAMP (GIPR variants (groups) [2])
	0.6171				A294V (protein) RAETGSKGQTAGELYQRWERYRRECQETLAAAEPPSGLACNGSFDMYVCWDYAAPNATARASCPWYLPWHHHVAAGFVLRQCGSDGQWGLWRDHTQCENPEKNEAFLDQRLILERLQVMYTVGYSLSLATLLLALLILSLFRRLHCTRNYIHINLFTSFMLRAAAILSRDRLLPRPGPYLGDQALALWNQALAACRTAQIVTQYCVGANYTWLLVEGVYLHSLLVLVGGSEEGHFRYYLLLGWGAPALFVIPWVIVRYLYENTQCWERNEVKVIWWIIRTPILMTILINFLIFIRILGILLSKLRTRQMRCRDYRLRLARSTLTLVPLLGVHEVVFAPVTEEQARGALRFAKLGFEIFLSSFQGFLVSVLYCFINKEVQSEIRRGWHHCRLRRSLGEEQRQLPERAFRALPSGSGPGEVPTSRGLSSGTLPGPGNEASRELESYC	WT-like_arr	0.6328	WT-like_camp	>50	0.6171
		1.005			I299V (protein) RAETGSKGQTAGELYQRWERYRRECQETLAAAEPPSGLACNGSFDMYVCWDYAAPNATARASCPWYLPWHHHVAAGFVLRQCGSDGQWGLWRDHTQCENPEKNEAFLDQRLILERLQVMYTVGYSLSLATLLLALLILSLFRRLHCTRNYIHINLFTSFMLRAAAILSRDRLLPRPGPYLGDQALALWNQALAACRTAQIVTQYCVGANYTWLLVEGVYLHSLLVLVGGSEEGHFRYYLLLGWGAPALFVIPWVIVRYLYENTQCWERNEVKAIWWIVRTPILMTILINFLIFIRILGILLSKLRTRQMRCRDYRLRLARSTLTLVPLLGVHEVVFAPVTEEQARGALRFAKLGFEIFLSSFQGFLVSVLYCFINKEVQSEIRRGWHHCRLRRSLGEEQRQLPERAFRALPSGSGPGEVPTSRGLSSGTLPGPGNEASRELESYC	WT-like_arr	0.7578	WT-like_camp	>50	1.005
				0.3479	E291K (protein) RAETGSKGQTAGELYQRWERYRRECQETLAAAEPPSGLACNGSFDMYVCWDYAAPNATARASCPWYLPWHHHVAAGFVLRQCGSDGQWGLWRDHTQCENPEKNEAFLDQRLILERLQVMYTVGYSLSLATLLLALLILSLFRRLHCTRNYIHINLFTSFMLRAAAILSRDRLLPRPGPYLGDQALALWNQALAACRTAQIVTQYCVGANYTWLLVEGVYLHSLLVLVGGSEEGHFRYYLLLGWGAPALFVIPWVIVRYLYENTQCWERNKVKAIWWIIRTPILMTILINFLIFIRILGILLSKLRTRQMRCRDYRLRLARSTLTLVPLLGVHEVVFAPVTEEQARGALRFAKLGFEIFLSSFQGFLVSVLYCFINKEVQSEIRRGWHHCRLRRSLGEEQRQLPERAFRALPSGSGPGEVPTSRGLSSGTLPGPGNEASRELESYC	LoF_arr	0.1982	LoF_camp	<50	0.3479

Further lines, the molecule ahead of its results:

Molecule	Efficacy at 100pmol (cAMP) (GIPR L261H)	Efficacy at 100pmol (cAMP) (GIPR A294V)	Efficacy at 100pmol (cAMP) (GIPR I299V)	Efficacy at 100pmol (cAMP) (GIPR E288G)	Efficacy at 100pmol (cAMP) (GIPR E291K)	In vitro groups (β-arrestin) (GIPR variants (groups) [1])	Beta, Barr (GIPR variants (groups) [1])	In vitro groups (cAMP) (GIPR variants (groups) [2])	percentage_camp (GIPR variants (groups) [2]) [% cAMP]	Beta, cAMP (GIPR variants (groups) [2])
L261H (protein) RAETGSKGQTAGELYQRWERYRRECQETLAAAEPPSGLACNGSFDMYVCWDYAAPNATARASCPWYLPWHHHVAAGFVLRQCGSDGQWGLWRDHTQCENPEKNEAFLDQRLILERLQVMYTVGYSLSLATLLLALLILSLFRRLHCTRNYIHINLFTSFMLRAAAILSRDRLLPRPGPYLGDQALALWNQALAACRTAQIVTQYCVGANYTWLLVEGVYLHSLLVLVGGSEEGHFRYYLHLGWGAPALFVIPWVIVRYLYENTQCWERNEVKAIWWIIRTPILMTILINFLIFIRILGILLSKLRTRQMRCRDYRLRLARSTLTLVPLLGVHEVVFAPVTEEQARGALRFAKLGFEIFLSSFQGFLVSVLYCFINKEVQSEIRRGWHHCRLRRSLGEEQRQLPERAFRALPSGSGPGEVPTSRGLSSGTLPGPGNEASRELESYC	0.4533					LoF_arr	0	LoF_camp	<50	0.4533
E288G (protein) RAETGSKGQTAGELYQRWERYRRECQETLAAAEPPSGLACNGSFDMYVCWDYAAPNATARASCPWYLPWHHHVAAGFVLRQCGSDGQWGLWRDHTQCENPEKNEAFLDQRLILERLQVMYTVGYSLSLATLLLALLILSLFRRLHCTRNYIHINLFTSFMLRAAAILSRDRLLPRPGPYLGDQALALWNQALAACRTAQIVTQYCVGANYTWLLVEGVYLHSLLVLVGGSEEGHFRYYLLLGWGAPALFVIPWVIVRYLYENTQCWGRNEVKAIWWIIRTPILMTILINFLIFIRILGILLSKLRTRQMRCRDYRLRLARSTLTLVPLLGVHEVVFAPVTEEQARGALRFAKLGFEIFLSSFQGFLVSVLYCFINKEVQSEIRRGWHHCRLRRSLGEEQRQLPERAFRALPSGSGPGEVPTSRGLSSGTLPGPGNEASRELESYC				0.04101		LoF_arr	0.09099	LoF_camp	<50	0.04101
